Data taken from the nanobody polyreactivity screen of Harvey et al. (2022).

Experiment: yeast display, Sf9 membrane polyspecificity reagent, FACS + sequencing; frameworks hold sequencing errors
In short: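 Genes from sorted yeast were amplified by colony PCR, read by MiSeq 2 × 250 sequencing and filtered on CDR length. These cells carried a synthetic nanobody library in Saccharomyces cerevisiae BJ5465 and were sorted by FACS into low and high (top ~1%) gates on anti-HA and streptavidin fluorescence. Polyreactivity is labelled according to the gate of origin.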
With “QVQLVESGGGLVQAGGSLRLSCAASGLIFVSYAMGWYRQAPGKERELVAAISSGGSTYYADSVKGRFTISRDNAKNTVSLQMTSLKPEDTAVYYCNADGFYSWLYDYWGQGTQVTVSS” the “polyreactivity (PSR sort gate)” value was “low polyreactivity”.
For “QVQLVESGGGLVQAGGSLRLSCAASGLIFWEYAMGWYRPAPGNERELVASITWGGGGTYYADSVKGRFTISRYNAKNTVNLHKNSLKPEDTAVYYSAVGPYYQSTQIYDYWGQGTQVTVSS”, the “polyreactivity (PSR sort gate)” value was “low polyreactivity”.
With “QVQLVESGGGLVQAGGSLRLSCAASGLIFWFYAMGWYRQAPGKERELVAAISGDGDSTYYADSVKGRFTISRDHAKNTVYLQMNSLKPEDTAVYYCAAEWDPVFATDEDDYWGQGTQVTVSS” the “polyreactivity (PSR sort gate)” value was “low polyreactivity”.
With “QVQLVESGGGLVQAGGSLRLSCAASGLIFWYNAMGWDRQATGKEREFVAAITSDGGRTYYADSVKGRFTISRDNAKNTVYLQMNSLKTEDTAVYYCTARGYGYLGRKGGYSYGYYYWGQGTQVTVSS” the “polyreactivity (PSR sort gate)” value was “low polyreactivity”.
In the case of “QVQLVESGGGLVQAGGSLRLSCAASGLIFWYYAMGWYRQAPGTERELVASISSGGDTTYADSVKGRFTISRDNAKKTVYLQMNSLKPEDTAVYDCAAERYVRVWVAGILHYDYWGQGTQVTGSS”, the “polyreactivity (PSR sort gate)” value is reported as “low polyreactivity”.
With “QVQLVESGGGLVQAGGSLRLSCAASGLIFYAYAMGWYRQAPGKERELVAAISYSGGSTYYADSVKGRFTISRDNAKNTVYLQMNSLKPEDTAVYYCAASYISVYWRWYEYWGQGTQVTVSS” the “polyreactivity (PSR sort gate)” value was “high polyreactivity”.
In the case of “QVQLVESGGGLVQAGGSLRLSCAASGLIFYDNMGGYRQAPGKERELVAAISSSGGSTSYADSVKGRFTISRDNAKNTVSLQMNSLNPEDSAVYYCTVSPGVWRSIPLYYNLLYGYWGQGTQVTVSS”, the “polyreactivity (PSR sort gate)” value is reported as “low polyreactivity”.
For “QVQLVESGGGLVQAGGSLRLSCAASGLIFYDNMGWYGPAPGKERELVAAISSSGGSTSYADSVKGRFTISRDNAKNTVYLQMNSLKPEDTAVYYCAADSYPAYLGFVCFDYWGQGTQVTVSS”, the “polyreactivity (PSR sort gate)” value was “low polyreactivity”.
In the case of “QVQLVESGGGLVQAGGSLRLSCAASGLIFYDNMGWYRQAPGKERELVAAISSSGGSTSYADSVKGRFTISRDNAKNTVYLQMNSLKPEDTAVYYCAADVELWVFRGQQYDYWGQGTQVTVSS”, the “polyreactivity (PSR sort gate)” value is reported as “low polyreactivity”.
For “QVQLVESGGGLVQAGGSLRLSCAASGLIFYDNMVWYRQGPGTETELVAAISSSGGSTSYADSVKGRFTISRDNAKNTVYLQMNILKPEDTAVYYCAADSYPAYLGFVCFDYWGQGTEVTVSS”, the “polyreactivity (PSR sort gate)” value was “low polyreactivity”.
For “QVQLVESGGGLVQAGGSLRLSCAASGLIFYDYAMGWYRPAPGKERELVAAITSSDSTYYADSVKGRFTISRDNAQNTVYLQMNSLKPEDTAVYYCAAKPYYFYGMDYWGQGTQVTVSS”, the “polyreactivity (PSR sort gate)” value was “high polyreactivity”.
In the case of “QVQLVESGGGLVQAGGSLRLSCAASGLIFYENAMGWYRQAPGKERELVAAINYDGDSTYYADSVKGRFTISRDNAKNTFYLQLNSLKPEDTAVYYCAADGGWVLFWMDYWGQGTQVTVSS”, the “polyreactivity (PSR sort gate)” value is reported as “low polyreactivity”.
With “QVQLVESGGGLVQAGGSLRLSCAASGLIFYGNAMGWSRQAPGKERELVAAISRRGGRTYYADSVKGRFTISRDNAKNTVYLQMNSLKPEDTAVYYCDADVIYSGDYWGQGTQVTVSS” the “polyreactivity (PSR sort gate)” value was “high polyreactivity”.
For “QVQLVESGGGLVQAGGSLRLSCAASGLIFYGNAMGWYRQAPVKERELVAAISRRGGRTYYADSVKGRFTISRDNAKNTVYLQMNSLKPEDTAVYYCAAGVPKNGQAGYDYWGQGTQVTVSS”, the “polyreactivity (PSR sort gate)” value was “high polyreactivity”.
With “QVQLVESGGGLVQAGGSLRLSCAASGLIFYGNAMGWYRQAPWKERELVAAITGGGGNTYYADSVKGRFTISRDNAKITFFLQMISLKPEDTAVYYCASASSTAYVRYYYWGQGTQVTVSS” the “polyreactivity (PSR sort gate)” value was “high polyreactivity”.
In the case of “QVQLVESGGGLVQAGGSLRLSCAASGLIFYINAMGWYRQAPGKERELVAAISSGGSTNYADSVKGRFTISRDNAKNTVYLQMNSLKPEDTAVYYCARDAYLPRIADGDGRYELVDYWGQGTQVTVSS”, the “polyreactivity (PSR sort gate)” value is reported as “low polyreactivity”.
In the case of “QVQLVESGGGLVQAGGSLRLSCAASGLIFYIYMGWYRQAPGKERELVAVISSSGNSTYYADSVKGRFTISRDNEKNTVYLQMNSLKPEDTAVYYCNASAYYPPSSSRYDYWGQGTQVTVSS”, the “polyreactivity (PSR sort gate)” value is reported as “low polyreactivity”.
With “QVQLVESGGGLVQAGGSLRLSCAASGLIFYKYAMGWYRQAPGKERELVASISTGGGSTYYADSVKGRFTISRDNAKNTVYLQMNSLKPEDTAVYYCAARWWRRFRGSHSLYDYWGQGTQVTVSS” the “polyreactivity (PSR sort gate)” value was “high polyreactivity”.
For “QVQLVESGGGLVQAGGSLRLSCAASGLIFYRNAMGWYRQAPGKERELVAAISKNGGNTYYADSVKGRFTISRDNAKNTVYLQMYSLKPEDTAVYYCAARELYGPFGYWGQGTQVTVSS”, the “polyreactivity (PSR sort gate)” value was “high polyreactivity”.
With “QVQLVESGGGLVQAGGSLRLSCAASGLIFYRNAMGWYRQAPGKERELVAGISASGGRTYYADSVNGRFTISRDNAKNTVYLQMNSLKPEDTAVYYCNRPSIYRYPQRLLGNFWGQGTQVTVSS” the “polyreactivity (PSR sort gate)” value was “high polyreactivity”.
In the case of “QVQLVESGGGLVQAGGSLRLSCAASGLIFYRYAMGWYRQAPGKERELVAAISRSGSSTYYADSVKGRFTISRDNAKNTFYLQINSLKPEDTAVYYCNAGYGWIWDDRGYWGQGTQVTVSS”, the “polyreactivity (PSR sort gate)” value is reported as “high polyreactivity”.
In the case of “QVQLVESGGGLVQAGGSLRLSCAASGLIFYRYAMGWYRQAPGKERELVATISSGGSTNYADSVKGRFTISRDNAKNTVYLQMNSLKPEDTAVYYCAASRWLYYYLFEYWGQGTQGTVSS”, the “polyreactivity (PSR sort gate)” value is reported as “high polyreactivity”.
With “QVQLVESGGGLVQAGGSLRLSCAASGLIFYRYAMGWYRQAPRKERELVARISYRTTSTYYADSVKGRFTISRDNAKNNVYLQMNSLKPEDTAVYYCAASRFAYRVRYLFEYWGHGTQVTVSS” the “polyreactivity (PSR sort gate)” value was “high polyreactivity”.
For “QVQLVESGGGLVQAGGSLRLSCAASGLIFYRYTMGWYRQAPGKERELVAAIDDSDTSTYYADSVKGRFTISRDNAKNTVYLQMNSLKPEDTAVYYCAAVPLAPYAVRSRLDFDYWGQGTQVTVSS”, the “polyreactivity (PSR sort gate)” value was “low polyreactivity”.
In the case of “QVQLVESGGGLVQAGGSLRLSCAASGLIFYRYTMGWYRQAPGKERELVAAITRSGSTYYADSVKGRFTISRDNAKNTVYLQMNSLKPEDTAVYYCAADVTLYYRGRRYYYWGQGTQVTVSS”, the “polyreactivity (PSR sort gate)” value is reported as “high polyreactivity”.
In the case of “QVQLVESGGGLVQAGGSLRLSCAASGLIFYSYAMGWYRQAPGKERELVAAINGGGGSTYYADSVKGRFTISRDNAKNTVYLQMNSLKPEDTAVYYCAAVRSIVDWGLMYYWGQGTQVTVSS”, the “polyreactivity (PSR sort gate)” value is reported as “high polyreactivity”.
In the case of “QVQLVESGGGLVQAGGSLRLSCAASGLIFYVYAMGWYRQAPGKERELVAAIRGSGARTYYADSVKGRFTISRDNAKNTVYLQMNSLKPEDTAVYYCNARQRYRPSYDYWGQGTQVTVSS”, the “polyreactivity (PSR sort gate)” value is reported as “high polyreactivity”.
In the case of “QVQLVESGGGLVQAGGSLRLSCAASGLIFYWYTMGWYRQAPGKEREFVAAITWGGGGTYYADSVKGRFTISRDKAKNTVYLQMNSLKPEDTAVYYCAAEEQVVKAHGDYWGQGTQVTVSS”, the “polyreactivity (PSR sort gate)” value is reported as “low polyreactivity”.
In the case of “QVQLVESGGGLVQAGGSLRLSCAASGLIFYYYAIGWYRQAPGKERELVAAITTGGGTYYADSVKGRFSISRVNAKNTVYLQMNSLKPEDTAVYYCAVYYRSYWGYEYWGQGTQVTVSS”, the “polyreactivity (PSR sort gate)” value is reported as “high polyreactivity”.
For “QVQLVESGGGLVQAGGSLRLSCAASGLIFYYYAMGWYRPAPGKERELVAAISRRGGSTYYADSVKGRFTISRDNAKNTVYLQMNSLKPEDTAVYYCNKYRSYWSGPSYWREYDYWGQGTQVTVSS”, the “polyreactivity (PSR sort gate)” value was “high polyreactivity”.
For “QVQLVESGGGLVQAGGSLRLSCAASGLIFYYYAMGWYRQAPGKERELVAAITWTAGSTSYADSVKGRFTISRDNAKNTVYLQMNSLKPEDTAVYYCAADYRHDTFSNEYDYWGQGTQVTVSS”, the “polyreactivity (PSR sort gate)” value was “low polyreactivity”.
For “QVQLVESGGGLVQAGGSLRLSCAASGLIIRYYDMGWYRQAPGKEREFVAAITWNGGSTYADSVKGRFTISRDNAKNTVYLQMNSLKPEDTAVYYCAADLSYWDDFDYWGHGTQVTVSS”, the “polyreactivity (PSR sort gate)” value was “low polyreactivity”.
For “QVQLVESGGGLVQAGGSLRLSCAASGLIIYRYAMGWYRQAPGKERELVAAISSTGGRTYYADSVKGRFTISRDNAKNTVYLQMNSLKPEDTAVYYCNADYGWKYVQYYYWGQGTQVTVSS”, the “polyreactivity (PSR sort gate)” value was “high polyreactivity”.
For “QVQLVESGGGLVQAGGSLRLSCAASGLIIYRYGMGWYRQAPGKERELVAAISYSGSSSYYADSVKGRFTISRDNAKNTVYLQMNSLKPEDTAVYYCAARHGPRSEAMYYWGQGTQVTVSS”, the “polyreactivity (PSR sort gate)” value was “high polyreactivity”.
For “QVQLVESGGGLVQAGGSLRLSCAASGLIIYYYAMGWYRQAPGKERELVAAISINGGSTYYADSVKGRFTISRDNAKNTVYLQMNSLIPEDTAVYYCAAFRRRMEYWGQGTQVTVSS”, the “polyreactivity (PSR sort gate)” value was “high polyreactivity”.
For “QVQLVESGGGLVQAGGSLRLSCAASGLILDGNVMGWYRQAPGKERELVAAINTSGGSTYYADSVKGRFTISRDNAKNTVYLQMNSLKPEDTAVYYCAARYPSDYDYWGQGTQVTVSS”, the “polyreactivity (PSR sort gate)” value was “low polyreactivity”.
In the case of “QVQLVESGGGLVQAGGSLRLSCAASGLILRKYAMGWYRQAPGKEREFVAAITQTGSRTYYADSVKGRFTISRDNAKNTVYLQMNSLKPEDTAVYYCNAVNYRSSRDSGYWGQGTQVTVSS”, the “polyreactivity (PSR sort gate)” value is reported as “high polyreactivity”.
With “QVQLVESGGGLVQAGGSLRLSCAASGLILRRYAMGWYRQAPGKDRELVAAISWSGGRTYYADSVKGRFTISRDNAKNTVYLQMISLKPEDTAVYYCAAGYIYWYYSYDYWGQGTQGTVSS” the “polyreactivity (PSR sort gate)” value was “high polyreactivity”.
For “QVQLVESGGGLVQAGGSLRLSCAASGLILSAYAMGWYRQAPGKERELVAAISKRGGSTYYADSVKGRFTISRDNAKNTVYSQMNSLKPEDTAVYYCAADYTKHYWGQGTQVTVSS”, the “polyreactivity (PSR sort gate)” value was “high polyreactivity”.
With “QVQLVESGGGLVQAGGSLRLSCAASGLILSTYAMGWYRQAPGKERELVAAITWRSGSTYYADSVKGRFTISRDNAKNTVYLQMNSLKPEDTAVYYCNVAPTFPYNGYEYWGQGTQVTVSS” the “polyreactivity (PSR sort gate)” value was “high polyreactivity”.
For “QVQLVESGGGLVQAGGSLRLSCAASGLILVYYAMGWYRQAPGKERELVAAITPGGSTKYADSVKGRFTISRDNAKNTVYFQMNSLKPEDTAVYYCAVDGDWHEPGNYIYEYDYWGQGTQVTVSS”, the “polyreactivity (PSR sort gate)” value was “low polyreactivity”.
For “QVQLVESGGGLVQAGGSLRLSCAASGLILYHYAMGWYREAPGKERELVAAISSGGITHYADSVKGRFTISRDNAKNTVYLQMNILKPEDNAVYYCNAVSYYWHDFDYWGQGTQVTVSS”, the “polyreactivity (PSR sort gate)” value was “high polyreactivity”.
With “QVQLVESGGGLVQAGGSLRLSCAASGLILYSYAMGWYRQAPGKERELVADISSGGITNYADSVKGRFTISRDNAKNTVYLQMNSLKPEDTAFYYCNADSYGGNLYIWEYYYWGQGTQVTVSS” the “polyreactivity (PSR sort gate)” value was “low polyreactivity”.
